In publication PMC2173048 (The Journal of Cell Biology, 2002):

Molecular target: T1, recombinant Kap121p (yeast, UniProt P32337 1-1089)
T1 sequence (looked up): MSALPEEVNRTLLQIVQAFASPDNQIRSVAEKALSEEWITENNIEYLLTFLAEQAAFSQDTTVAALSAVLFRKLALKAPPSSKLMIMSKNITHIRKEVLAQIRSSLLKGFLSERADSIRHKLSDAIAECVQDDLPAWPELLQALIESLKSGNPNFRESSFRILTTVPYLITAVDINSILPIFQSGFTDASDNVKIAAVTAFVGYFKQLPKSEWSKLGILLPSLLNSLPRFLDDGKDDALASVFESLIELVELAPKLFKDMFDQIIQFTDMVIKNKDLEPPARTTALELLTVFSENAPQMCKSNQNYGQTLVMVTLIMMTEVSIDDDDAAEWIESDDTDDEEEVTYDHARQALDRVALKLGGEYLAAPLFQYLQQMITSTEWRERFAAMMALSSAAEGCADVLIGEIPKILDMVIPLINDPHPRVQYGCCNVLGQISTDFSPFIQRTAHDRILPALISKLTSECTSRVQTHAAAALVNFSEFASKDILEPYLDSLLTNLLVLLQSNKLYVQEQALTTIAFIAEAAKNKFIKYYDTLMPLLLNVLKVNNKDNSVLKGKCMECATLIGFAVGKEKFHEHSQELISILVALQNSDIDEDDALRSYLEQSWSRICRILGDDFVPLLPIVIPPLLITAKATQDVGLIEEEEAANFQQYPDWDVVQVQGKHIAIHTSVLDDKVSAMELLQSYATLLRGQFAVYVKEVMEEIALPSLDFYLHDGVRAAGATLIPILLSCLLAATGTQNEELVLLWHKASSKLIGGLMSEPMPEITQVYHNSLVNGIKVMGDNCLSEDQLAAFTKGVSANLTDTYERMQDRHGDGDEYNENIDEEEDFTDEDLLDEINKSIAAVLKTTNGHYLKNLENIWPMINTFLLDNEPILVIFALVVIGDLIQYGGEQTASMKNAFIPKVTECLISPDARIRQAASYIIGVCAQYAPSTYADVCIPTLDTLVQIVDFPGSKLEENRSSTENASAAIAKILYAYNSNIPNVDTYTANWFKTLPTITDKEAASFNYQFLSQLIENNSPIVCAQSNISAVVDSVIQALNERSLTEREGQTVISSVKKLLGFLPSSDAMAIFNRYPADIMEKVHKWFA
Experiment: pull-down

binding result: binds
B1: GST-401–448 (domain or fragment, yeast, UniProt Q03790 401-448, looked up)
chain: RNAEFKVSKNSTSFKNPRRLEIKDGRSLFLRNRGKIHSGVLSSIESDL
